Starred links: 1 amine or outer side, 2 acyl side, 3 side chain; linkers in the order of their positions; H or OH if unused. Positions of bridges follow the written chain, without caps; N, C: chain ends. Non-standard residues stand in square brackets, D forms with d. Yde = (2S)-2-amino-3-[4-[2-(dimethylamino)ethoxy]phenyl]propanoic acid, CN(C)CCOc1ccc(C[C@H](N[*:1])C(=O)[*:2])cc1; Trp(7-Me) = Cc1cccc2c(C[C@H](N)C(=O)O)c[nH]c12; αMeLys(Me2) = CN(C)CCCC[C@](C)(N)C(=O)O; 2Nal = N[C@@H](Cc1ccc2ccccc2c1)C(=O)O; AEF = NCCOc1ccc(C[C@H](N)C(=O)O)cc1; 3Pal = N[C@@H](Cc1cccnc1)C(=O)O; Thp = NC1(C(=O)O)CCOCC1; Aib = CC(C)(N)C(=O)O; Ahx = NCCCCCC(=O)O; Ava = NCCCCC(=O)O; Sar = CNCC(=O)O
Molecular target: T1, IL-23 receptor on the surface of HEK-Blue IL-23 cells (UniProt Q5VWK5 24-629, limits assumed)
T1 sequence (looked up): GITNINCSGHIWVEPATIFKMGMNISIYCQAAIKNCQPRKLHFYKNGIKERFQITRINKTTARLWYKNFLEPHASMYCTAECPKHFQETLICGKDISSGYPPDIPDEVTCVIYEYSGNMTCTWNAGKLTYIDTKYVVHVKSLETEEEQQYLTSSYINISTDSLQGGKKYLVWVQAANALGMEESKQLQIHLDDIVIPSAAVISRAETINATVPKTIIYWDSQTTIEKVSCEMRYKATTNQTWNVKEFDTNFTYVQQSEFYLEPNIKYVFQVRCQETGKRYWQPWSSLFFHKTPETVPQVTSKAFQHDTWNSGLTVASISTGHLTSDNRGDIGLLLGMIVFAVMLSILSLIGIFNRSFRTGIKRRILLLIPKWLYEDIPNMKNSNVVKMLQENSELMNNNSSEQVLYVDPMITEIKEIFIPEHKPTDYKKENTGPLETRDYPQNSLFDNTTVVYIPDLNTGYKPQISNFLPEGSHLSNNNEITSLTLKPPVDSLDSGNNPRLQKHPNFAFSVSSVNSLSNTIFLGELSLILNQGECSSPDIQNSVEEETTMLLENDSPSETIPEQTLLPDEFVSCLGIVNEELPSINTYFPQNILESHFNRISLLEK
Assay: cell-based or functional assay

B1: Compound of SEQ ID NO: 54 (peptide)
peptide: [Ava]CNT[Trp(7-Me)]K(Ac)C[Yde][2Nal][αMeLys(Me2)]EN[dL]-NH2
modifications: lactam N-11; disulfide 2-7
SMILES: CC(=O)NCCCC[C@@H]1NC(=O)[C@H](Cc2c[nH]c3c(C)cccc23)NC(=O)[C@H]([C@@H](C)O)NC(=O)[C@H](CC(N)=O)NC(=O)[C@@H]2CSSC[C@H](NC1=O)C(=O)N[C@@H](Cc1ccc(OCCN(C)C)cc1)C(=O)N[C@@H](Cc1ccc3ccccc3c1)C(=O)N[C@@](C)(CCCCN(C)C)C(=O)N[C@H](C(=O)N[C@@H](CC(N)=O)C(=O)N[C@H](CC(C)C)C(N)=O)CCC(=O)NCCCCC(=O)N2
  pSTAT3 (nM): 2.59 nM

B2: Compound of SEQ ID NO: 52 (peptide)
peptide: [Ava]CNT[Trp(7-Me)]QC[Yde][2Nal][Aib]ENH-NH2
modifications: lactam N-11; disulfide 2-7
SMILES: Cc1cccc2c(C[C@@H]3NC(=O)[C@H]([C@@H](C)O)NC(=O)[C@H](CC(N)=O)NC(=O)[C@@H]4CSSC[C@H](NC(=O)[C@H](CCC(N)=O)NC3=O)C(=O)N[C@@H](Cc3ccc(OCCN(C)C)cc3)C(=O)N[C@@H](Cc3ccc5ccccc5c3)C(=O)NC(C)(C)C(=O)N[C@H](C(=O)N[C@@H](CC(N)=O)C(=O)N[C@@H](Cc3c[nH]cn3)C(N)=O)CCC(=O)NCCCCC(=O)N4)c[nH]c12
  pSTAT3 (nM): 1.25 nM

B3: Compound of SEQ ID NO: 56 (peptide)
peptide: [Ava]CNT[Trp(7-Me)]K(Ac)C[Yde][2Nal][Thp]ES[3Pal][Sar]-NH2
modifications: lactam N-11; disulfide 2-7
SMILES: CC(=O)NCCCC[C@@H]1NC(=O)[C@H](Cc2c[nH]c3c(C)cccc23)NC(=O)[C@H]([C@@H](C)O)NC(=O)[C@H](CC(N)=O)NC(=O)[C@@H]2CSSC[C@H](NC1=O)C(=O)N[C@@H](Cc1ccc(OCCN(C)C)cc1)C(=O)N[C@@H](Cc1ccc3ccccc3c1)C(=O)NC1(CCOCC1)C(=O)N[C@H](C(=O)N[C@@H](CO)C(=O)N[C@@H](Cc1cccnc1)C(=O)N(C)CC(N)=O)CCC(=O)NCCCCC(=O)N2
  pSTAT3 (nM): 0.16 nM

B4: Compound of SEQ ID NO: 53 (peptide)
peptide: [Ahx]C[Ava]WQC[AEF][2Nal][Aib]DAG-NH2
modifications: lactam N-10; disulfide 2-6
SMILES: C[C@H](NC(=O)[C@@H]1CC(=O)NCCCCCC(=O)N[C@H]2CSSC[C@H](NC(=O)[C@H](CCC(N)=O)NC(=O)[C@H](Cc3c[nH]c4ccccc34)NC(=O)CCCCNC2=O)C(=O)N[C@@H](Cc2ccc(OCCN)cc2)C(=O)N[C@@H](Cc2ccc3ccccc3c2)C(=O)NC(C)(C)C(=O)N1)C(=O)NCC(N)=O
  pSTAT3 (nM): 60.8 nM

B5: Compound of SEQ ID NO: 58 (peptide)
peptide: [Ava]CNTWK(Ac)C[Yde][2Nal][αMeLys(Me2)]EN[3Pal][Sar]-NH2
modifications: lactam N-11; disulfide 2-7
SMILES: CC(=O)NCCCC[C@@H]1NC(=O)[C@H](Cc2c[nH]c3ccccc23)NC(=O)[C@H]([C@@H](C)O)NC(=O)[C@H](CC(N)=O)NC(=O)[C@@H]2CSSC[C@H](NC1=O)C(=O)N[C@@H](Cc1ccc(OCCN(C)C)cc1)C(=O)N[C@@H](Cc1ccc3ccccc3c1)C(=O)N[C@@](C)(CCCCN(C)C)C(=O)N[C@H](C(=O)N[C@@H](CC(N)=O)C(=O)N[C@@H](Cc1cccnc1)C(=O)N(C)CC(N)=O)CCC(=O)NCCCCC(=O)N2
  pSTAT3 (nM): 0.1 nM

B6: Compound of SEQ ID NO: 55 (peptide)
peptide: [Ava]CNT[Trp(7-Me)]K(Ac)C[Yde][2Nal][Thp]ENHX-NH2
modifications: lactam N-11; disulfide 2-7; not fully specified (residue 14); printed as Apt(§1)-C(@2)-N-T-Wim-K[Ac]-C(@2)-Yde-Nal-Thp-E(§1)-N—H-Mep-NH2
  pSTAT3 (nM): 0.95 nM

— patent US20260258084A1, “New Peptides as Selective IL-23 Receptor Antagonists” (Sanofi, priority 2022, published 2026)
